# From patent publication US10065993B2, “Peptides and peptide/active compound conjugates for renal targeting” (MERCK PATENT GMBH, priority 2013, dated 2018)
# Ends that are not written are not given here. Peptide text beside a SMILES is read from it. * marks the point of attachment. ξ: configuration not given here. Lipoyl(6ξ) = O=C(CCCCC1CCSS1)*
# Columns and labels:
# [1] = test system: kidneys (i.e. proximal tubule cells, PTCs); conditions: in vivo; cited from earlier work
# kidney = assay: Scintigraphic / SPECT distribution of radiolabelled peptides and conjugates (kidney selectivity); set-up: species or system NMRI mice; conditions: mouse, in vivo; for kidney specificity: iv
# Experimental: The labelling is carried out using a 1 mM stock solution of the peptide to be labelled in water (dimethyl sulfoxide (DMSO) may have to be added for better solubility). Tyrosine-containing peptides are labelled with iodine-123, iodine-125 or iodine-131 (Perkin-Elmer, Waltham, Mass., USA) by means of the chloramine-T method. To this end, 20 μl of phosphate buffer (0.25 M, pH 7.4) are added to 10 μl of the stock solution, and the desired amount of radioactive iodine is added. For the labelling, 5 μl of chloramine-T (2 mg/ml of H2O) are added. The reaction is carried out for 30 seconds and is subsequently terminated using 10 μl of a saturated methionine solution. In order to separate off free iodine and by-products, the reaction mixture is purified by means of semipreparative HPLC (Chromolith RP-18e, 100×4.6 mm). The separation is carried out using a linear gradient from 0.1% of TFA in water to 0.1% of TFA in acetonitrile in 10 minutes (flow rate: 2 ml/min, UV absorption at 214 nm, γ detection). The solvent is subsequently removed in a rotary evaporator, and the labelled peptide is taken up in the desired buffer.
# The tyrosine-containing peptides are labelled with ^125iodine by means of the chloramine-T method. For the labelling, a 1 mM stock solution in water is used. If necessary, DMSO is added for better solubility. To this end, 20 μl of phosphate buffer (0.25 M, pH 7.4) are added to 10 μl of the stock solution, and the desired amount of radioactive iodine is added. The labelling is carried out using 5 μl of chloramine-T (2 mg/ml of H2O). The reaction is carried out for 30 seconds and is subsequently terminated using 10 μl of a saturated methionine solution.
# After the labelling, the peptide is purified by means of semi-preparative HPLC in order to remove the excess free iodine and other by-products. 100 μl of the 0.1 mM stock solution are in each case used for the injection. Before the injection, the radioactivity is recorded by means of a Geiger counter. […]
Molecule,kidney specificity (kidney),also measured
C[C@@H](O)[C@@H]1NC(=O)[C@H](CCCCN)NC(=O)[C@@H](Cc2c[nH]c3ccccc23)NC(=O)[C@H](Cc2ccc(O)cc2)NC(=O)[C@@H](NC(=O)[C@@H](Cc2ccccc2)NC(=O)CN2CCN(CC(=O)O)CCN(CC(=O)O)CCN(CC(=O)O)CC2)CSSC[C@@H](C(=O)N[C@H](CO)[C@@H](C)O)NC1=O [DOTATOC],,uptake by the kidneys [1]: about 20%
"(APASLYN)2: dimer of literature kidney-selective peptide APASLYN (Denby et al.), SEQ ID NO: 90 (APASLYNAPASLYN; not fully specified)",,kidney selectivity (kidney): already inadequate
diacetylcaffeic acid (KKEEE)3K: diacetylcaffeic acid bonded at the N terminal of y(KKEEE)3K (KKEEEKKEEEKKEEEK-NH2; not fully specified (N-terminus)),retain their high kidney specificity,
NCCCCC(NC(=O)C(CCC(=O)O)NC(=O)C(CCC(=O)O)NC(=O)C(CCC(=O)O)NC(=O)C(CCCCNC(=O)CCCCC1CCSS1)NC(=O)C(CCCCN)NC(=O)C(CCCCN)NC(=O)C(CCC(=O)O)NC(=O)C(CCC(=O)O)NC(=O)C(CCC(=O)O)NC(=O)C(CCCCNC(=O)CCCCC1CCSS1)NC(=O)C(CCCCN)NC(=O)C(CCCCN)NC(=O)C(CCC(=O)O)NC(=O)C(CCC(=O)O)NC(=O)C(CCC(=O)O)NC(=O)C(CCCCNC(=O)CCCCC1CCSS1)NC(=O)C(CCCCN)NC(=O)C(CCCCN)NC(=O)C(N)Cc1ccc(O)cc1)C(N)=O (stereo not shown) [y(KKKε(lipoic acid)EEE)3K] (H-YKKK(Lipoyl(6ξ))EEEKKK(Lipoyl(6ξ))EEEKKK(Lipoyl(6ξ))EEEK-NH2; configuration not given here),high kidney specificity,
